Results taken from patent US20230287046A1, “MOLECULES TARGETING PROTEINS” (AELIN THERAPEUTICS, priority 2020, published 2023).
Where no end group is shown, it is not given here.

Key:
G12C mutant KRAS = target: T1, G12C mutant KRAS (Homo sapiens, UniProt P01116, G12C); test: In vitro translation assay with streptavidin pull-down, KRAS G12C; format: binding; conditions: 10 μM biotinylated pept-in, Western blot
T1 construct: made in house; host or cells: cell-free: PURExpress In Vitro Protein Synthesis Kit (New England Biolabs)
Protocol: (§1) In vitro translation assays were performed using the PURExpress® In Vitro Protein Synthesis Kit (New England Biolabs) according to the manufacturer's instructions. Briefly, linear DNA fragments containing T7 promotor and terminator sequences flanking the KRAS coding sequence were generated using PCR and purified using the MinElute PCR Purification Kit (Qiagen). 250 ng of linear DNA was subsequently used for the in vitro translation reaction, which was performed for 2 hours at 37° C. with shaking (1000 rpm). Indicated biotinylated pept-ins were mixed in the translation reactions from a 5 mM stock solution in 6M Urea to a final concentration of 10 μM. Upon completion of the translation reaction, biotinylated pept-ins were captured from the reaction mix using Streptavidin coated beads (Pierce) during 90 min at room temperature. Beads were next washed with TBS containing 0.1% Tween 20 and bound proteins were finally boiled off in 1×SDS loading dye (Bio-Rad) in TBS buffer. Proteins were resolved using Any kD 15-well Mini-PROTEAN gels (Bio-Rad) during SDS-PAGE and probed for KRAS after Western blotting using a mouse monoclonal KRAS-specific antibody (SC-30, Santa Cruz Biotechnology), which was detected with an HRP-coupled anti-mouse secondary antibody using chemiluminescence on a Bio-Rad Chemidoc MP imaging instrument. […]

G12V mutant KRAS = target: T2, G12V mutant KRAS (Homo sapiens, UniProt P01116, G12V); test: In vitro translation assay with streptavidin pull-down, KRAS G12V; format: binding; conditions: 10 μM biotinylated pept-in, Western blot
T2 construct: made in house; host or cells: cell-free: PURExpress In Vitro Protein Synthesis Kit (New England Biolabs)
Protocol: In vitro translation assays were performed using the PURExpress® In Vitro Protein Synthesis Kit (New England Biolabs) according to the manufacturer's instructions. Briefly, linear DNA fragments containing T7 promotor and terminator sequences flanking the KRAS coding sequence were generated using PCR and purified using the MinElute PCR Purification Kit (Qiagen). 250 ng of linear DNA was subsequently used for the in vitro translation reaction, which was performed for 2 hours at 37° C. with shaking (1000 rpm). Indicated biotinylated pept-ins were mixed in the translation reactions from a 5 mM stock solution in 6M Urea to a final concentration of 10 μM. Upon completion of the translation reaction, biotinylated pept-ins were captured from the reaction mix using Streptavidin coated beads (Pierce) during 90 min at room temperature. Beads were next washed with TBS containing 0.1% Tween 20 and bound proteins were finally boiled off in 1×SDS loading dye (Bio-Rad) in TBS buffer. Proteins were resolved using Any kD 15-well Mini-PROTEAN gels (Bio-Rad) during SDS-PAGE and probed for KRAS after Western blotting using a mouse monoclonal KRAS-specific antibody (SC-30, Santa Cruz Biotechnology), which was detected with an HRP-coupled anti-mouse secondary antibody using chemiluminescence on a Bio-Rad Chemidoc MP imaging instrument.
To mimic this in vitro, we devised an in vitro translation setup producing either wild-type or mutant KRAS (G12V, G12C, G12D or G13D) in the presence of biotinylated RAS-targeting pept-ins. This allowed us to perform a streptavidin pull-down to capture the biotinylated pept-ins from the translation reaction and perform SDS-PAGE and Western blotting to probe the pulled-down fraction for the presence of KRAS. The biotinylated version of pept-in 04-004-N001, i.e. 04-004-N011, which harbours an APR window sequence derived from a wild-type APR, is predicted to target all RAS proteins independently from their mutation status.

KRAS G13D mutant = target: T3, KRAS G13D mutant (Homo sapiens, UniProt P01116, G13D); test: In vitro translation assay with streptavidin pull-down, KRAS G13D; format: binding; conditions: 10 μM biotinylated pept-in, Western blot
T3 construct: made in house; host or cells: cell-free: PURExpress In Vitro Protein Synthesis Kit (New England Biolabs)
Protocol: as §1

KRAS G12D mutant = target: T4, KRAS G12D mutant (Homo sapiens, UniProt P01116, G12D); test: In vitro translation assay with streptavidin pull-down, KRAS G12D; format: binding; conditions: 10 μM biotinylated pept-in, Western blot
T4 construct: made in house; host or cells: cell-free: PURExpress In Vitro Protein Synthesis Kit (New England Biolabs)
Protocol: as §1

[1] = system: SW620 human KRAS G12V colorectal cancer xenograft; test: In vivo SW620 xenograft model; set-up: species or system mouse; conditions: three times per week
Protocol: Female NCr nu/nu mice (8 to 12 weeks) were inoculated with 1×10^6 SW620 tumor cells in 50% Matrigel subcutaneously in the hind flank. The cell Injection Volume was 0.1 mL/mouse. When tumors reached an average size of 100-150 mm^3 a pair match was performed, and treatment started. Group sizes were N=6 for the non-treated group, N=5 for the vehicle groups and N=8 for the pept-in and positive control groups. Tumor growth was monitored by caliper measurement twice per week. Model response was monitored by Irinotecan dosed once per week at 100 mg/kg intraperitoneally for 3 weeks.
To assess whether the RAS-targeting pept-ins are able to attenuate growth of KRAS G12V-driven tumors in vivo, a subcutaneous xenograft model of human KRAS G12V colorectal cancer (SW620) was used. Once the tumors reached 100-150 mm^3 in size, pept-ins were administered directly into the tumor mass by intratumoral injection three times per week during two weeks at two different doses (20 μg and 200 μg).

[2] = target: T5, mCherry-tagged KRAS G12V in HeLa cells (Homo sapiens, UniProt P01116, G12V); test: Cellular fluorescent imaging in HeLa cells overexpressing mCherry-tagged KRAS G12V; format: cell-based; conditions: 75 min after treatment
T5 construct: expressed in transfected cells; host or cells: HeLa cells transduced with lentiviral particles
Protocol: Fluorescent cellular imaging was performed using HeLa cells that were transduced with lentiviral particles carrying a construct expressing KRAS G12V labeled N-terminally with mCherry. Cells were seeded in a black Gclear® Cellstar® F-bottom 96-well plates (Greiner) in 100 μL full growth medium. […] Next, cells were fixed, washed and counterstained with the nuclear dye NucBlue™ (containing Hoechst 33342). Images were captured on a Leica confocal microscope.
To complement the co-immunoprecipitation approach, we also used a cellular imaging approach to show target engagement. To this end, we generated a HeLa cell line overexpressing mCherry-tagged KRAS G12V and FITC-labelled versions of the RAS-targeting pept-ins.

[3] = system: NCI-H441 spheroid cultures; test: Single-dose viability screen on NCI-H441 suspension spheroid cultures (3D, CellTiter Glo 3D); format: cell-based, human; conditions: NCI-H441 spheroids, single dose 25 μM, 5 days
Protocol: For the single-dose viability screen on spheroid cultures, 1000 cells were seeded per well in black Ultra-Low Attachment (ULA) round-bottom 96-well plates (Corning) in 75 μL full growth medium. The day after seeding, spheroids were treated by addition of 50 μl of full growth medium containing the indicated test compounds so that the final concentration after adding was 25 μM. Technical duplicates were included for all experimental pept-in conditions 5 days after treatment viability was assessed using the CellTiter Glo 3D reagent (Promega) according to the manufacturer's instructions, with the following adaptation: 80 μL of reagent was added per well. Readout was performed on a Clariostar plate reader (BMG). […]
As previous reports have shown that adherent growth of KRAS mutant cells lines might attenuate their sensitivity to KRAS inhibition or knockdown (Fujita-Sato et al. Cancer Res. 2015, vol. 75, 2851-62; Patricelli et al. Cancer Discov. 2016, vol. 6, 316-29; Vartanian et al. J Biol Chem. 2013, vol. 288, 2403-13), we complemented the screen on adherently growing NCI-H441 cells with a screen on suspension spheroid cultures of the same cell line. […] Viability of the spheroid cultures was determined after 5 days of exposure using the CellTiter Glo 3D reagent from Promega. […]

[4] = target: T6, KRAS of NCI-H441 lung adenocarcinoma cells (KRAS G12V mutant) (human, UniProt P01116 1-186); test: cell-based or functional assay
[5] = target: T6, KRAS of NCI-H441 lung adenocarcinoma …; test: cell-based or functional assay; remark: listed apart in the source

## 04-015-N026: biotinylated version of a biologically active pept-in harbouring an APR window containing the G12V mutant site (04-015 series) (KVVVGAVGKGSKVVVGAVGK; also: biotinylated version)
G12C mutant KRAS
  pull-down of KRAS G12C: notable pull-down
G12V mutant KRAS
  pull-down of KRAS G12V: notable pull-down

## 04-006-N007: biotinylated version of a biologically active pept-in harbouring an APR window containing the G12V mutant site (04-006 series) (KVVVGAVKGSKVVVGAVK; also: biotinylated version)
G12V mutant KRAS
  pull-down of KRAS G12V: notable pull-down was only observed for the G12V mutant KRAS

## 04-004-N011: biotinylated version of pept-in 04-004-N001 (KLSVFAIKGSKLSVFAIK; also: biotinylated version of 04-004-N001)
G12C mutant KRAS
  pull-down of KRAS G12C: efficient pull-down
KRAS G13D mutant
  binding to KRAS G13D: less efficient
KRAS G12D mutant
  binding to KRAS G12D: less efficient
G12V mutant KRAS
  pull-down of KRAS G12V: efficient pull-down

## Ac-KLSVFAIKGSKLSVFAIK-NH2 [04-004-N001]
[1]; 20 μg intratumoral
  reduction in average tumor volume at day 22: only significant for the 200 μg dosing group
[1]; 200 μg intratumoral
  reduction in average tumor volume at day 22: only significant for the 200 μg dosing group

## 04-033-N003: biotinylated version of a biologically active pept-in harbouring an APR window containing the G12V mutant site (04-033 series) (KVVVGAVGVGKGSKVVVGAVGVGK; also: biotinylated version)
G12V mutant KRAS
  pull-down of KRAS G12V: notable pull-down was only observed for the G12V mutant KRAS

## CC(=O)N[C@@H](CCCCN)C(=O)N[C@H](C(=O)N[C@H](C(=O)N[C@H](C(=O)NCC(=O)N[C@@H](C)C(=O)N[C@H](C(=O)NCC(=O)N[C@@H](CCCCN)C(=O)NCC(=O)N[C@@H](CO)C(=O)N[C@@H](CCCCN)C(=O)N[C@H](C(=O)N[C@H](C(=O)N[C@H](C(=O)NCC(=O)N[C@@H](C)C(=O)N[C@H](C(=O)NCC(=O)N[C@@H](CCCCN)C(N)=O)C(C)C)C(C)C)C(C)C)C(C)C)C(C)C)C(C)C)C(C)C)C(C)C [04-015-N001]
[1]; 20 μg intratumoral
  reduction in average tumor volume at day 22: significant reduction in average tumor volume
[1]; 200 μg intratumoral
  reduction in average tumor volume at day 22: significant reduction in average tumor volume

## 04-015-N032: RAS-targeting FITC-labelled version of pept-in 04-015-N001 (KVVVGAVGKGSKVVVGAVGK; also: FITC-labelled version of 04-015-N001)
[2]
  association with mCherry-labelled KRAS: associates with mCherry-labelled KRAS

## Ac-KLVVVGAVKGSKLVVVGAVK-NH2 [04-014-N001]
[3]
  activity in the spheroid setting: did not display activity

## Ac-KLVVVGAVKGSKLVVVGAVK-NH2 [04-014-N001]
[4]
  Normalized viability NCI-H441 4 days of exposure to 25 µM (%): 9.1%
[5]
  IC50 on viability of adherently growing NCI-H441 cells (CellTiter Glo, 3 days): ~10 µM

## Ac-KVVVGAVKGSKVVVGAVK-NH2 [04-006-N001]
[4]
  Normalized viability NCI-H441 4 days of exposure to 25 µM (%): 8.7%
[5]
  IC50 on viability of adherently growing NCI-H441 cells (CellTiter Glo, 3 days): ~10 µM

## Ac-KVVVGAVGVGKGSKVVVGAVGVGK-NH2 [04-033-N001]
[4]
  Normalized viability NCI-H441 4 days of exposure to 25 µM (%): 5.2%
[5]
  IC50 on viability of adherently growing NCI-H441 cells (CellTiter Glo, 3 days): ~10 µM

## Ac-KLSVFAIKGSKLSVFAIK-NH2 [04-004-N001]
[4]
  Normalized viability NCI-H441 4 days of exposure to 25 µM (%): 6.1%
[5]
  IC50 on viability of adherently growing NCI-H441 cells (CellTiter Glo, 3 days): ~10 µM

## Ac-KVVVGAVGKGSKVVVGAVGK-NH2 [04-015-N001]
[4]
  Normalized viability NCI-H441 4 days of exposure to 25 µM (%): 23.3%
[5]
  IC50 on viability of adherently growing NCI-H441 cells (CellTiter Glo, 3 days): ~10 µM
